# In US9150655B2, “Anti-C-met antibody and methods of use thereof” (ACADEMIA SINICA, priority 2010, dated 2015):
# Columns and labels:
# c-Met932-Fc protein = biological target: T1, c-Met932-Fc protein (Homo sapiens, UniProt P08581); assay: Binding kinetics of anti-c-Met scFv by SPR (BIAcore)
# T1 construct: DNA fragments encoding amino acid residues 1 to 932 and 1 to 567 of c-Met were amplified by PCR; made in house; host or cells: 293T cells, transient transfection, protein G purification from supernatant
# T1 sequence (P08581 25-307): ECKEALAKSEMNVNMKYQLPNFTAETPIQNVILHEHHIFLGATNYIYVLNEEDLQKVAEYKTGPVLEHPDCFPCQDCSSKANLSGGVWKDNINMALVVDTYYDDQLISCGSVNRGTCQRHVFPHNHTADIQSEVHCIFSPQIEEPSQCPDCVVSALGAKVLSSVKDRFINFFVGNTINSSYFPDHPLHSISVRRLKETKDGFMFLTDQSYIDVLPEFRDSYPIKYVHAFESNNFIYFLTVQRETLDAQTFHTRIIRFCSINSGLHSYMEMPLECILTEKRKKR
# T1 sequence (P08581 308-932): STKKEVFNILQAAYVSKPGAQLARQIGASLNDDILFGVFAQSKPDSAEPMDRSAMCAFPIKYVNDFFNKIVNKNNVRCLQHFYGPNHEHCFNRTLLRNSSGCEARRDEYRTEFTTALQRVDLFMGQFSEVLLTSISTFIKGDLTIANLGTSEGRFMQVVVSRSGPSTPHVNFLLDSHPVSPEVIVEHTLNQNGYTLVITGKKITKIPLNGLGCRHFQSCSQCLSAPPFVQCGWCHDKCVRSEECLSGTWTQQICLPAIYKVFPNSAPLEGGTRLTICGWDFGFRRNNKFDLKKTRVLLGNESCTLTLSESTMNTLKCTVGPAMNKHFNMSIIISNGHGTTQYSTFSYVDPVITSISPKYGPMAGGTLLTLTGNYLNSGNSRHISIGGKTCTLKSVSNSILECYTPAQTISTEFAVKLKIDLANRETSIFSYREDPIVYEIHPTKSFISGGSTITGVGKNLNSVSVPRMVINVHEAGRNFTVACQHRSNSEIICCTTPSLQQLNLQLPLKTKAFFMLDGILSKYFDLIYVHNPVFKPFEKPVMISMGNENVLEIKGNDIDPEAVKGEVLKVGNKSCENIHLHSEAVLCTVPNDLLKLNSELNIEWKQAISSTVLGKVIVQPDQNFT
# Procedure: The affinity and kinetics of anti-c-Met scFv were measured by SRP in BIAcore X (GE healthcare). In BIAcore flowcell, 30 μg/ml of c-MetF932-Fc protein was coupled to EDC- and NHS-activated CM5 sensor chip followed by blocking with ethanolamine according to manufacturer's directions. Associated and dissociated phases were monitored for 3 and 5 min, respectively, under continuous flow of 30 μl/min using scFv concentrations ranging 5 to 200 nM. Regeneration was performed by injection of regenerate buffer (0.2 M NaCl, 10 mM glycine, pH 2.7). To determine binding constants, the sensorgrams were fit globally to a sample 1:1 interaction model using BIAevaluation software (GE healthcare).
# Binding kinetic constants (Kon and Koff) and affinity of each soluble scFv for c-Met932-Fc protein were measured by Surface Plasmon Resonance (SPR).
# Kon and Koff were measured by SRP in a BIAcore using purified scFvs, and the Kd was calculated by BIAevaluation software.
# c-MetF932-Fc protein = biological target: T2, c-MetF932-Fc protein (Homo sapiens, UniProt P08581); assay: Competitive ELISA: soluble scFv inhibit HGF binding to immobilized c-Met protein
# T2 construct: DNA fragments encoding amino acid residues 1 to 932 and 1 to 567 of c-Met were amplified by PCR; made in house; host or cells: 293T cells, transient transfection, protein G purification from supernatant
# T2 sequence (P08581 25-307 limits assumed): as the sequence (P08581 25-307) above
# T2 sequence (P08581 308-932 limits assumed): as the sequence (P08581 308-932) above
# Procedure: To monitor inhibition effect of scFv, we coated the c-MetF932-Fc protein on a 96-well plate and blocked nonspecific binder with 3% BSA in PBS. 1 nM human HGF (R&D) plus varying concentrations of anti-c-Met scFv or normal mouse IgG were applied to the wells. The amount of HGF bound to c-Met was determined using goat anti-human HGF (R&D), following incubation of HRP-labeled mouse anti-goat IgG (Jackson ImmunoResearch) and OPD substrate (Sigma) plus H2O2. The absorbance was measured with 490 nm using a microplate reader. Inhibition percentage was calculated by the following equation: [(the absorbance of HGF bound without competitor)−(the absorbance of HGF bound with competitor)]/(the absorbance of HGF bound without competitor)×100%.
# To test whether the three anti-c-Met scFvs could inhibit HGF binding to c-Met, the human lung cancer cell line H1993 was chosen to undergo competition ELISA (Lutterbach B et al. (2007) Cancer Res 67:2081-2088). […] HGF binding to H1993 cells without competitors was considered 100%. H1993 is known to express a high level of c-Met. When H1993 cells were incubated with HGF in the presence of the phage clones, the binding of HGF to H1993 cells was diminished by more than 90% by the anti-c-Met scFv PC1. PC20 inhibited more than 50% of HGF binding to c-Met (FIG. 2, panel A). The competitive inhibition of HGF by different concentrations of soluble scFvs was also tested. Normal mouse IgG (NMIgG) was used as a negative control. HGF binding to immobilized c-Met protein without competitors was considered 100%.
# c-Met = biological target: T3, c-Met (Homo sapiens, UniProt P08581); assay: HGF-induced c-Met phosphorylation in A549 cells (Western blot); assay type: cell-based; settings: A549 cells co-treated with HGF and S1 at 37° C. for 15 min; relative to cells without S1
# T3 construct: endogenous in cells; host or cells: A549
# T3 sequence (P08581 25-1390): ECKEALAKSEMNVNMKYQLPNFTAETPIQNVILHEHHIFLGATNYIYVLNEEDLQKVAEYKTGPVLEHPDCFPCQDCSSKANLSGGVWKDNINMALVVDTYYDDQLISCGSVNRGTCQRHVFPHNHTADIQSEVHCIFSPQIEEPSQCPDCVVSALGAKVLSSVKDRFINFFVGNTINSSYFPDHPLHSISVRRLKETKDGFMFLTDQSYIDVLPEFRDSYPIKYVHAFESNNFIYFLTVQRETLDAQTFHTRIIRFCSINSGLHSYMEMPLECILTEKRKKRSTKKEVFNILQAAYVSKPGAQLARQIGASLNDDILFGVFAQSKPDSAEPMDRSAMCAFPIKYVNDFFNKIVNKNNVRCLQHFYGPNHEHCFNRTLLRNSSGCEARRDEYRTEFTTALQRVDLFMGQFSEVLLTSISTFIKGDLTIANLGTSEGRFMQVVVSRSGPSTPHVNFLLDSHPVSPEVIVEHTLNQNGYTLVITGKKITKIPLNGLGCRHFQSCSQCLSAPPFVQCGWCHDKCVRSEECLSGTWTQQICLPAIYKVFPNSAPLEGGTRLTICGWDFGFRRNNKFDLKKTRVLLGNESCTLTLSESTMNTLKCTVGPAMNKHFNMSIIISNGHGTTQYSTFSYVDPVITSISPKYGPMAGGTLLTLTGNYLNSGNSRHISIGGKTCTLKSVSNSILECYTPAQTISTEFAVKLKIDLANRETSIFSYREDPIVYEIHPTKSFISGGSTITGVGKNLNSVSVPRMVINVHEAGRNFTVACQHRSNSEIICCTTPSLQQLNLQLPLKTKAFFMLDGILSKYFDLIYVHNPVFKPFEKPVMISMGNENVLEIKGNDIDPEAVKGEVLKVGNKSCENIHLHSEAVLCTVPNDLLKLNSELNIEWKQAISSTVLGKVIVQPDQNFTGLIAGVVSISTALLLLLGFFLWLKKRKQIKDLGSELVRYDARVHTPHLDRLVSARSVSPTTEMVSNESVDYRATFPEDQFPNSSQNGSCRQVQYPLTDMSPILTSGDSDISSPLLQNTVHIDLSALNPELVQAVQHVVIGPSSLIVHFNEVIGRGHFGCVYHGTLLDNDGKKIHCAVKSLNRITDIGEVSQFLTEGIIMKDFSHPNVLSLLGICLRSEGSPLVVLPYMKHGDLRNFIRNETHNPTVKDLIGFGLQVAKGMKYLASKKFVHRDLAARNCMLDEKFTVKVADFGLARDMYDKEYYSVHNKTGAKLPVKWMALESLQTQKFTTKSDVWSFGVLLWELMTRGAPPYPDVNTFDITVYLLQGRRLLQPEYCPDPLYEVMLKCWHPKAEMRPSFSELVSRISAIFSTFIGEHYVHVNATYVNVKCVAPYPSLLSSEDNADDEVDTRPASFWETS
# Procedure: Since the anti-c-Met scFv S1 presented superiorly competitive capability, whether S1 would antagonize HGF to activate c-Met in cancer cells was examined. A549 cells were co-treated with HGF and S1 at 37° C. for 15 min. Total cell lysate was subjected to Western blotting using anti-tyrosine-phosphorylated c-Met antibody and an antibody against the c-Met β-chain (c-Met). Quantification of phosphorylated c-Met was based on luminescence intensity and normalized with total c-Met.
# [1] = biological target: T4, endogenous c-Met in cancer cells (Homo sapiens, UniProt P08581); assay: ELISA of scFv binding to human cancer cell lines; assay type: cell-based
# T4 construct: endogenous in cells
# T4 sequence (P08581 25-1390): as above
# Procedure: (§1) The binding activities of anti-c-Met scFvs to endogenous c-Met were analyzed in cancer cells by ELISA (FIG. 9, panel A). […] Normal mouse IgG was used as a control antibody. FACS analysis was performed to verify that […] anti-c-Met scFvs also bound VEGF-stimulated HUVECs. Anti-CD31 antibody and control scFv were used a positive and negative control, respectively (FIG. 9, panel B).
# VEGF-stimulated HUVECs = assay: FACS of scFv binding to VEGF-stimulated HUVECs; assay type: cell-based, human
# Procedure: as §1
# [2] = biological target: T5, endogenous c-Met on H460 cells (Homo sapiens, UniProt P08581); assay: FACS of scFv binding to H460 and c-Met knockdown H460 cells; assay type: cell-based
# T5 construct: endogenous in cells; host or cells: H460 and MET-KD H460
# T5 sequence (P08581 25-1390): as above
# Procedure: To further confirm that the anti-c-Met scFv would bind specifically to endogenous c-Met on human cancer cells, H460 cells and c-Met knockdown H460 cells were stained with anti-c-Met scFv, either S1 or S20, and FACS analysis was carried out (FIG. 10, panel B).
# c-Met567-Fc protein = biological target: T6, c-Met567-Fc protein (Homo sapiens, UniProt P08581); assay: Epitope ELISA on c-Met932-Fc and c-Met567-Fc; assay type: binding; settings: immobilized recombinant proteins
# T6 construct: DNA fragments encoding amino acid residues 1 to 932 and 1 to 567 of c-Met were amplified by PCR; made in house; host or cells: 293T cells, transient transfection, protein G purification from supernatant
# Procedure: Therefore, binding epitopes of anti-c-Met scFvs localized within HGF binding domain of c-Met were investigated. The binding ability of anti-c-Met scFvs was examined for c-Met932-Fc protein including whole extracellular domain of c-Met, and c-Met567-Fc protein containing Sema and PSI domain, both of which have been defined as HGF binding regions (FIG. 2, panel C). The c-Met recombinant proteins were immobilized on titer wells, and incubated with anti-c-Met scFvs. Anti-c-Met polyclonal antibody and anti-E tag antibody was used as a positive and negative control, respectively. […] The binding intensity of S1 for c-Met932-Fc was similar to that for c-Met567-Fc.
# [3] = purified scFv, c-MetF932-Fc on CM5 chip
molecule,measurement,setting,value
"S1: soluble anti-c-Met scFv corresponding to phage clone PC1; VH/VL sequences in Table 1 (protein, left off: small tags and cut ends) scFv: MAQVQLQQSGPGLVKPSQTLSLTCDISGDSVSSNSAAWNWIRQSPSRGLEWLGRTYYRSRWYNEYAVSVRGRISINAETSKNQFSLQLNSVTPEDTAIYYCARAGFCSGGNCYPGSEDAFDLWGQGTMVTVGGGGSGGGGSGGGGSDVVMTQSPPSLSVSVGDRVTITCRASQDITNDLNWYQQKPGKAPQLLIYHASELETGVPSRFSGSGFGTDFTLTISSLQPADIATYYCQQYDDLPLTFGGGTKVEIKR",Kd,"c-Met932-Fc protein; purified scFv 5 to 200 nM, c-MetF932-Fc coupled to CM5 chip, Kd calculated by BIAevaluation software",6.82 nM
same,Koff,c-Met932-Fc protein; [3],0.00134 s⁻¹
same,Kon,c-Met932-Fc protein; [3],215000 M⁻¹ s⁻¹
same,IC50,"c-MetF932-Fc protein; 1 nM human HGF, immobilized c-Met protein, soluble scFv",27.4 nM
same,Inhibition of binding activity of HGF to c-Met,c-MetF932-Fc protein; different concentrations of soluble scFv,dose-dependently inhibited
same,Inhibition of HGF-induced c-Met phosphorylation,c-Met,65.7%
same,"Reactivity with A498, U2OS and NNM cells","[1]; A498, U2OS, NNM cells",did not react
same,Binding to human cancer cell lines,"[1]; SKOV3, Mahlavu, SAS, PC3, MDA-MB-231, HCT116, Paca-2, NPC-TW04, H1993 cells, vs control antibody",found to bind
same,Binding to VEGF-stimulated HUVECs,VEGF-stimulated HUVECs,bound
same,Binding activity in c-Met knockdown H460 cells,[2]; c-Met knockdown H460,dramatically decreased
same,Binding to H460 cells,[2]; c-Met wildtype H460,able to bind
same,Binding to c-Met567-Fc compared to c-Met932-Fc,c-Met567-Fc protein,similar
